# Test results published in the supplement of paper PMC11246515.
# ± gives the standard deviation of the averaged measurements.
# Test: total protein half-life in vivo (active degradation + dilution); higher = more stable protein
# [1] = E. coli NCM3722 delta-clpP delta-lon delta-hslV, growth: N-lim chemostat, doubling time 6 h
# [2] = E. coli NCM3722 delta-clpP, growth: N-lim chemostat, doubling time 6 h
# [3] = E. coli NCM3722 delta-hslV, growth: N-lim chemostat, doubling time 6 h
# [4] = E. coli NCM3722 delta-lon, growth: N-lim chemostat, doubling time 6 h
# [5] = E. coli NCM3722 delta-smpB, growth: N-lim chemostat, doubling time 6 h
# [6] = wild type E. coli NCM3722, growth: C-lim chemostat, doubling time 3 h
# [7] = wild type E. coli NCM3722, growth: C-lim chemostat, doubling time 6 h
# [8] = wild type E. coli NCM3722, growth: C-lim chemostat, doubling time 12 h
# [9] = wild type E. coli NCM3722, growth: N-lim chemostat, doubling time 6 h
# [10] = wild type E. coli NCM3722, growth: N-lim chemostat, doubling time 12 h
# [11] = wild type E. coli NCM3722, growth: P-lim chemostat, doubling time 6 h
# [12] = wild type E. coli NCM3722, growth: P-lim chemostat, doubling time 12 h
Sequence,total protein half-life in vivo [1] [h],total protein half-life in vivo [2] [h],total protein half-life in vivo [3] [h],total protein half-life in vivo [4] [h],total protein half-life in vivo [5] [h],total protein half-life in vivo [6] [h],total protein half-life in vivo [7] [h],total protein half-life in vivo [8] [h],total protein half-life in vivo [9] [h],total protein half-life in vivo [10] [h],total protein half-life in vivo [11] [h],total protein half-life in vivo [12] [h]
MKHSVSVTCCALLVSSISLSYAAEVPSGTVLAEKQELVRHIKDEPASLDPAKAVGLPEIQVIRDLFEGLVNQNEKGEIVPGVATQWKSNDNRIWTFTLRDNAKWADGTPVTAQDFVYSWQRLVDPKTLSPFAWFAALAGINNAQAIIDGKATPDQLGVTAVDAHTLKIQLDKPLPWFVNLTANFAFFPVQKANVESGKEWTKPGNLIGNGAYVLKERVVNEKLVVVPNTHYWDNAKTVLQKVTFLPINQESAATKRYLAGDIDITESFPKNMYQKLLKDIPGQVYTPPQLGTYYYAFNTQKGPTADQRVRLALSMTIDRRLMTEKVLGTGEKPAWHFTPDVTAGFTPEPSPFEQMSQEELNAQAKTLLSAAGYGPQKPLKLTLLYNTSENHQKIAIAVASMWKKNLGVDVKLQNQEWKTYIDSRNTGNFDVIRASWVGDYNEPSTFLTLLTSTHSGNISRFNNPAYDKVLAQASTENTVKARNADYNAAEKILMEQAPIAPIYQYTNGRLIKPWLKGYPINNPEDVAYSRTMYIVKH,5.12 ± 0.18,5.6 ± 0.17,6.96 ± 0.47,6.18 ± 0.087,5.63 ± 0.21,3.26 ± 0.29,6.21 ± 0.43,10.1 ± 0.25,6.41 ± 0.44,12.1 ± 0.92,5.86 ± 0.16,12.4 ± 1.1
MKIATIKTGLASLAMLPGLVMAAPAVADKADNAFMMICTALVLFMTIPGIALFYGGLIRGKNVLSMLTQVTVTFALVCILWVVYGYSLAFGEGNNFFGNINWLMLKNIELTAVMGSIYQYIHVAFQGSFACITVGLIVGALAERIRFSAVLIFVVVWLTLSYIPIAHMVWGGGLLASHGALDFAGGTVVHINAAIAGLVGAYLIGKRVGFGKEAFKPHNLPMVFTGTAILYIGWFGFNAGSAGTANEIAALAFVNTVVATAAAILGWIFGEWALRGKPSLLGACSGAIAGLVGVTPACGYIGVGGALIIGVVAGLAGLWGVTMLKRLLRVDDPCDVFGVHGVCGIVGCIMTGIFAASSLGGVGFAEGVTMGHQLLVQLESIAITIVWSGVVAFIGYKLADLTVGLRVPEEQEREGLDVNSHGENAYNA,5.75 ± 1.4,4.24 ± 0.22,5.51 ± 1.2,5.81 ± 2,4.6 ± 0.47,,,,4.78 ± 0.62,8.59 ± 0.8,,
MKIDLNADLGEGCASDAELLTLVSSANIACGFHAGDAQIMQACVREAIKNGVAIGAHPSFPDRENFGRSAMQLPPETVYAQTLYQIGALATIARAQGGVMRHVKPHGMLYNQAAKEAQLADAIARAVYACDPALILVGLAGSELIRAGKQYGLTTREEVFADRGYQADGSLVPRSQSGALIENEEQALAQTLEMVQHGRVKSITGEWATVAAQTVCLHGDGEHALAFARRLRSAFAEKGIVVAA,5 ± 0.5,,3.66,5.55 ± 2,3.12 ± 0.19,2.4 ± 0.35,,7.69 ± 0.61,3.911 ± 0.035,5.79 ± 0.9,4.55 ± 0.18,7.81 ± 1.7
MKIGTQNQAFFPENILEKFRYIKEMGFDGFEIDGKLLVNNIEEVKAAIKETGLPVTTACGGYDGWIGDFIEERRLNGLKQIERILEALAEVGGKGIVVPAAWGMFTFRLPPMTSPRSLDGDRKMVSDSLRVLEQVAARTGTVVYLEPLNRYQDHMINTLADARRYIVENDLKHVQIIGDFYHMNIEEDNLAQALHDNRDLLGHVHIADNHRYQPGSGTLDFHALFEQLRADNYQGYVVYEGRIRAEDPAQAYRDSLAWLRTC,5.87 ± 0.64,,,,,,,,,,,
MKIIILGAGQVGGTLAENLVGENNDITVVDTNGERLRTLQDKFDLRVVQGHGSHPRVLREAGADDADMLVAVTSSDETNMVACQVAYSLFNTPNRIARIRSPDYVRDADKLFHSDAVPIDHLIAPEQLVIDNIYRLIEYPGALQVVNFAEGKVSLAVVKAYYGGPLIGNALSTMREHMPHIDTRVAAIFRHDRPIRPQGSTIVEAGDEVFFIAASQHIRAVMSELQRLEKPYKRIMLVGGGNIGAGLARRLEKDYSVKLIERNQQRAAELAEKLQNTIVFFGDASDQELLAEEHIDQVDLFIAVTNDDEANIMSAMLAKRMGAKKVMVLIQRRAYVDLVQGSVIDIAISPQQATISALLSHVRKADIVGVSSLRRGVAEAIEAVAHGDESTSRVVGRVIDEIKLPPGTIIGAVVRGNDVMIANDNLRIEQGDHVIMFLTDKKFITDVERLFQPSPFFL [P0AGI8],6.84 ± 1.2,4.97 ± 0.52,5.96 ± 0.17,5.31 ± 0.37,5.41 ± 0.16,3.056 ± 0.029,6.56 ± 0.57,11.5 ± 0.3,5.839 ± 0.044,12 ± 0.56,6.38 ± 0.11,13.2 ± 0.66
MKIILLFLAALASFTVHAQPPSQTVEQTVRHIYQNYKSDATAPYFGETGERAITSARIQQALTLNDNLTLPGNIGWLDYDPVCDCQDFGDLVLESVAITQTDADHADAVVRFRIFKDDKEKTTQTLKMVAENGRWVIDDIVSNHGSVLQAVNSENEKTLAALASLQKEQPEAFVAELFEHIADYSWPWTWVVSDSYRQAVNAFYKTTFKTANNPDEDMQIERQFIYDNPICFGEESLFSRVDEIRVLEKTADSARIHVRFTLTNGNNEEQELVLQRREGKWEIADFIRPNSGSLLKQIEAKTAARLKQ,5.65,5.01 ± 0.93,,6.249 ± 0.025,5.65 ± 0.12,3.56,> 8,11.1 ± 0.5,6.33 ± 0.27,12.3 ± 1.8,6.45,11.28 ± 0.1
MKIISFVLPCLLVLAGCSTPSQPEAPKPPQIGMANPASVYCQQKGGTLIPVQTAQGVSNNCKLPGGETIDEWALWRRDHPAGEK,,> 8,,6.51,5.85,2.68,,15.8 ± 0.2,,14.4 ± 0.2,6.22,
